The values that follow are results of earlier work, collected in paper PMC8894873.

The data set concerns the target Glu35 (UniProt position 53, CAAKFESNFNT). In words: not stated (a cited reference title indicates two-dimensional 1H NMR).

Broadly, the pKa is the negative logarithm of the acid dissociation constant. “Lysozyme (lysozyme C, presumably hen egg-white) (Gallus gallus (inferred; the article says only 'lysozyme'))”: the pKa is listed as 6.3.
